Six substances from patent publication US11491212 can be followed below.

The first data set relates to CB 2679d (modified FIX R318Y/R338E/T343R, SEQ ID NO:394), mature single-chain zymogen form.
Chain of CB 2679d (modified FIX R318Y/R338E/T343R, SEQ ID NO:394), mature single-chain zymogen form (chain, as listed by the source R318Y R338E T343R): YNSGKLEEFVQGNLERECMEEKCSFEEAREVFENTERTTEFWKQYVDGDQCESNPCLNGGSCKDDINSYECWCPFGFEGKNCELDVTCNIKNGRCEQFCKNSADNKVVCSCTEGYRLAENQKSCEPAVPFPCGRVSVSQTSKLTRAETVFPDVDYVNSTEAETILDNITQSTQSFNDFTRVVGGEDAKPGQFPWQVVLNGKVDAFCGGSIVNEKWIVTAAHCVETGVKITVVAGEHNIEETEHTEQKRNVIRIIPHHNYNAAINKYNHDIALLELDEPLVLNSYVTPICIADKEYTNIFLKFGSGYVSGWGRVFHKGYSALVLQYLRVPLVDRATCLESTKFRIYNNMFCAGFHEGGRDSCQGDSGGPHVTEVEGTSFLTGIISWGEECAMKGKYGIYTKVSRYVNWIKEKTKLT
Experiment: not given
Regarding “activated Factor XI (FXIa; Heamatologic Technologies, Inc.)”, the “activation rate and extent of activation by factor XIa/calcium” value is “The activation rate of the polypeptide of SEQ ID NO:394 (CB 2679d) by factor XIa/calcium and the extent of activation (approximately 100%) were equivalent to those of commercial lots of BeneFIX®”.

The next data set deals with plasma purified human AT-III (antithrombin III). Kind of data set: same assay; ratio of K0.5 to Catalyst Biosciences WT FIXa.
For FIXa A103N/N105S, the K0.5-mut/K0.5-wt amounted to 1.1 fold.

Take FIXa D104N/K106S: the K0.5-mut/K0.5-wt turned out to be 0.9 fold.

As to FIXa K106N/V108S, the K0.5-mut/K0.5-wt was 1.6 fold.

Regarding FIXa D85N, the K0.5-mut/K0.5-wt stood at 1.1 fold.

Regarding “BeneFIX Coagulation Factor IX (Recombinant), activated (FIXa)”, the K0.5-mut/K0.5-wt was determined as 0.9 fold.
